Laboratory results published in paper doi:10.1101/2020.12.15.422856 (bioRxiv, 2020).

Target: the molecule itself
Experiment: SEC

B1: Mer2 (wild-type, full-length) (natural protein)
chain: MVARGRTDEISTDVSEANSEHSLMITETSSPFRSIFSHSGKVANAGALEESDKQILEWAGKLELESMELRENSDKLIKVLNENSKTLCKSLNKFNQLLEQDAATNGNVKTLIKDLASQIENQLDKVSTAMLSKGDEKKTKSDSSYRQVLVEEISRYNSKITRHVTNKQHETEKSMRCTQEMLFNVGSQLEDVHKVLLSLSKDMHSLQTRQTALEMAFREKADHAYDRPDVSLNGTTLLHDMDEAHDKQRKKSVPPPRMMVTRSMKRRRSSSPTLSTSQNHNSEDNDDASHRLKRAARTIIPWEELRPDTLESEL
B1: binds.
